{"source": "paper PMC2120956", "key": {"[1]": {"molecular_target": "embryonic myosin isolated from primary culture myotubes (chicken) (UniProt P02565)"}, "[2]": {"molecular_target": "embryonic breast muscle myosin isolated from d15 chick embryos (chicken) (UniProt P02565)"}}}
{"substance": "F-actin (from UniProt P68139 1-377) (natural protein)", "values": [{"measurement": "actin filament velocity, in vitro motility assay", "setting": "[1]", "value": 3.1, "unit": "um/s"}, {"measurement": "actin filament velocity, in vitro motility assay", "setting": "[2]", "value": 3.8, "unit": "um/s"}]}
